In general, Kd refers to the free concentration of one partner at which half of the binding sites on the other are occupied at equilibrium, for simple one-to-one binding. A lower Kd goes with higher affinity.

For one molecule, Kd results are on record in article PMC8916728.

For this experiment, the target named is 1-32–captured Pentamer (HCMV Pentamer bound by 1-32 IgG) (human cytomegalovirus (strain Towne) | human) (UniProt P17176). As to the kind of experiment: BLI. In general terms: BLI is a label-free optical method that tracks binding on a fibre tip over time.

B1: untagged NRP2 (receptor)
chain: RGQPDPPCGGRLNSKDAGYITSPGYPQDYPSHQNCEWIVYAPEPNQKIVLNFNPHFEIEKHDCKYDFIEIRDGDSESADLLGKHCGNIAPPTIISSGSMLYIKFTSDYARQGAGFSLRYEIFKTGSEDCSKNFTSPNGTIESPGFPEKYPHNLDCTFTILAKPKMEIILQFLIFDLEHDPLQVGEGDCKYDWLDIWDGIPHVGPLIGKYCGTKTPSELRSSTGILSLTFHTDMAVAKDGFSARYYLVHQEPLENFQCNVPLGMESGRIANEQISASSTYSDGRWTPQQSRLHGDDNGWTPNLDSNKEYLQVDLRFLTMLTAIATQGAISRETQNGYYVKSYKLEVSTNGEDWMVYRHGKNHKVFQANNDATEVVLNKLHAPLLTRFVRIRPQTWHSGIALRLELFGCRVTDAPCSNMLGMLSGLIADSQISASSTQEYLWSPSAARLVSSRSGWFPRIPQAQPGEEWLQVDLGTPKTVKGVIIQGARGGDSITAVEARAFVRKFKVSYSLNGKDWEYIQDPRTQQPKLFEGNMHYDTPDIRRFDPIPAQYVRVYPERWSPAGIGMRLEVLGCDWTDSKPTVETLGPTVKSEETTTPYPTEEEATECGENCSFEDDKDLQLPSGFNCNFDFLEEPCGWMYDHAKWLRTTWASSSSPNDRTFPDDRNFLRLQSDSQREGQYARLISPPVHLPRSPVCMEFQYQATGGRGVALQVVREASQESKLLWVIREDQGGEWKHGRIILPSYDMEYQIVFEGVIGKGRSGEIAIDDIRISTDVPLENCMEPISAFAGENFKVDIPEIHEREGYEDEIDDEYEVDWSNSSSATSGSGAPSTDKEKSWLYTLDPILITIIAMSSLGVLLGATCAGLLLYCTCSYSGLSSRSCTTLENYNFELYDGLKHKVKMNHQKCCSEA
For the molecule B1, the Kd was found to be 133 nM.
